To fix the notation:
B1: PLAGL1 (parent)
chain: DPNKMAFGCEECGKKYNTMLGYKR
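Further: lentivirally expressed fusions sorted by FACS into six bins by GFP to DsRed ratio, PSI derived from sequencing read proportions per bin multiplied by bin number.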

In the series the parent is B1. Briefly: protein stability index of a GFP-peptide fusion (GPS, HEK-293T) (PSI 1-6); higher = more stable. As to conditions: c terminus: a fixed tail appended.
Consider DPNKMAFGCEECGKNYNTMLGYKR, for which the protein stability index was determined as 2.99. Regarding DPNKMAFGCEECGKAYNTMLGYKR, the protein stability index is 2.73. The value for DPNKMAFGCEECGKQYNTMLGYKR was 3.14; that for DPNKMAFGCEECGKIYNTMLGYKR was 1.58; that for DPNKMAFGCEECGKMYNTMLGYKR was 1.73. Consider DPNKMAFGCEECGKLYNTMLGYKR, for which the protein stability index turned out to be 2.19. As to DPNKMAFGCEECGKSYNTMLGYKR, the protein stability index was 1.96.

For the variant DPNKMAFGCEECGKRYNTMLGYKR, the protein stability index is 1.52. The value for DPNKMAFGCEECGKEYNTMLGYKR was 3.03; that for DPNKMAFGCEECGKDYNTMLGYKR was 3.12. Turning to DPNKMAFGCEECGKYYNTMLGYKR, the protein stability index stood at 1.71. On to DPNKMAFGCEECGKCYNTMLGYKR, for which the protein stability index was determined as 2.63. The value for DPNKMAFGCEECGKHYNTMLGYKR was 1.98; that for DPNKMAFGCEECGKWYNTMLGYKR was 2.27. In the case of DPNKMAFGCEECGKPYNTMLGYKR, the protein stability index worked out at 2.81. In the case of DPNKMAFGCEECGKGYNTMLGYKR, the protein stability index came to 2.3. In the case of DPNKMAFGCEECGKTYNTMLGYKR, the protein stability index is 2.58.

For the variant DPNKMAFGCEECGKVYNTMLGYKR, the protein stability index was found to be 2.27. Consider DPNKMAFGCEECGKFYNTMLGYKR, for which the protein stability index is 1.81. Regarding DPNKMAFGCEETGKKYNTMLGYKR, the protein stability index was found to be 3.78.

Turning to DPNKMAFGCEERGKKYNTMLGYKR, the protein stability index worked out at 4.61.

For the variant DPNKMAFGCEEFGKKYNTMLGYKR, the protein stability index was 3.44. DPNKMAFGCEEEGKKYNTMLGYKR: the protein stability index was found to be 4.78. As to DPNKMAFGCEENGKKYNTMLGYKR, the protein stability index was 4.1. Consider DPNKMAFGCEEWGKKYNTMLGYKR, for which the protein stability index is 2.93. Take DPNKMAFGCEEAGKKYNTMLGYKR: the protein stability index is 4.36. With DPNKMAFGCEEKGKKYNTMLGYKR, the protein stability index came to 4.4. DPNKMAFGCEEIGKKYNTMLGYKR: the protein stability index worked out at 2.6.

On to DPNKMAFGCEEDGKKYNTMLGYKR, for which the protein stability index stood at 4.49. For the variant DPNKMAFGCEEPGKKYNTMLGYKR, the protein stability index was found to be 4.01.

In the case of DPNKMAFGCEEGGKKYNTMLGYKR, the protein stability index worked out at 4.29. Consider DPNKMAFGCEEMGKKYNTMLGYKR, for which the protein stability index was determined as 3.93. On to DPNKMAFGCEEVGKKYNTMLGYKR, for which the protein stability index was found to be 4.43. As to DPNKMAFGCEEQGKKYNTMLGYKR, the protein stability index was determined as 4.24. On to DPNKMAFGCEEHGKKYNTMLGYKR, for which the protein stability index was 2.98.

For DPNKMAFGCEELGKKYNTMLGYKR, the protein stability index was 3.3. With DPNKMAFGCEEYGKKYNTMLGYKR, the protein stability index turned out to be 3.92.

DPNKMAFGCEESGKKYNTMLGYKR: the protein stability index was determined as 3.52. In the case of DPNKMAFGCEMCGKKYNTMLGYKR, the protein stability index came to 2.68. As to DPNKMAFGCESCGKKYNTMLGYKR, the protein stability index is 2.5. Turning to DPNKMAFGCEYCGKKYNTMLGYKR, the protein stability index came out at 1.92. In the case of DPNKMAFGCEGCGKKYNTMLGYKR, the protein stability index was 1.77. In the case of DPNKMAFGCEPCGKKYNTMLGYKR, the protein stability index worked out at 2.83. With DPNKMAFGCEDCGKKYNTMLGYKR, the protein stability index was 2.65.

As for DPNKMAFGCETCGKKYNTMLGYKR, the protein stability index was found to be 1.9. As for DPNKMAFGCEQCGKKYNTMLGYKR, the protein stability index came to 1.99. Take DPNKMAFGCEHCGKKYNTMLGYKR: the protein stability index was 2.28. With DPNKMAFGCECCGKKYNTMLGYKR, the protein stability index came out at 1.44. For the variant DPNKMAFGCENCGKKYNTMLGYKR, the protein stability index was 2.52.

As for DPNKMAFGCEACGKKYNTMLGYKR, the protein stability index came to 2.96. Regarding DPNKMAFGCELCGKKYNTMLGYKR, the protein stability index was determined as 3.19. Take DPNKMAFGCEFCGKKYNTMLGYKR: the protein stability index was found to be 1.85.

Take DPNKMAFGCEICGKKYNTMLGYKR: the protein stability index came out at 2.45. DPNKMAFGCEKCGKKYNTMLGYKR: the protein stability index stood at 2.49. For DPNKMAFGCEWCGKKYNTMLGYKR, the protein stability index is 1.37.

DPNKMAFGCEVCGKKYNTMLGYKR: the protein stability index is 2.79. As for DPNKMAFGCERCGKKYNTMLGYKR, the protein stability index turned out to be 1.53. Consider DPNKMAFGCEECGKKYNGMLGYKR, for which the protein stability index came to 3.07. As to DPNKMAFGCEECGKKYNIMLGYKR, the protein stability index is 2.63.

As to DPNKMAFGCEECGKKYNHMLGYKR, the protein stability index is 2.81. DPNKMAFGCEECGKKYNSMLGYKR: the protein stability index came to 2.39. With DPNKMAFGCEECGKKYNQMLGYKR, the protein stability index was 3.04. Consider DPNKMAFGCEECGKKYNCMLGYKR, for which the protein stability index came out at 2.35. For the variant DPNKMAFGCEECGKKYNRMLGYKR, the protein stability index turned out to be 2.6.

DPNKMAFGCEECGKKYNKMLGYKR: the protein stability index came out at 3.01. For DPNKMAFGCEECGKKYNVMLGYKR, the protein stability index stood at 1.42. The value for DPNKMAFGCEECGKKYNNMLGYKR was 2.3; that for DPNKMAFGCEECGKKYNMMLGYKR was 2.18. The result for DPNKMAFGCEECGKKYNAMLGYKR reads 3.2; that for DPNKMAFGCEECGKKYNEMLGYKR, 2.77. Turning to DPNKMAFGCEECGKKYNLMLGYKR, the protein stability index came out at 1.85.

Consider DPNKMAFGCEECGKKYNFMLGYKR, for which the protein stability index stood at 2.15. For the variant DPNKMAFGCEECGKKYNPMLGYKR, the protein stability index turned out to be 2.78. As for DPNKMAFGCEECGKKYNDMLGYKR, the protein stability index was found to be 2.42.

Take DPNKMAFGCEECGKKYNYMLGYKR: the protein stability index amounted to 1.87. Take DPNKMAFGCEECGKKSNTMLGYKR: the protein stability index was 2.62. With DPNKMAFGCEECGKKVNTMLGYKR, the protein stability index was 2.73. In the case of DPNKMAFGCEECGKKLNTMLGYKR, the protein stability index is 3.25. Consider DPNKMAFGCEECGKKKNTMLGYKR, for which the protein stability index was determined as 3.16. DPNKMAFGCEECGKKHNTMLGYKR: the protein stability index came to 2.73.

In the case of DPNKMAFGCEECGKKNNTMLGYKR, the protein stability index was determined as 3.04. Consider DPNKMAFGCEECGKKCNTMLGYKR, for which the protein stability index worked out at 2.58. The result for DPNKMAFGCEECGKKANTMLGYKR reads 2.82; that for DPNKMAFGCEECGKKENTMLGYKR, 3.2; that for DPNKMAFGCEECGKKINTMLGYKR, 2.13. Take DPNKMAFGCEECGKKDNTMLGYKR: the protein stability index came out at 2.88. Turning to DPNKMAFGCEECGKKPNTMLGYKR, the protein stability index was found to be 3.07. The result for DPNKMAFGCEECGKKTNTMLGYKR reads 3.51. The value for DPNKMAFGCEECGKKFNTMLGYKR was 2.68. For the variant DPNKMAFGCEECGKKMNTMLGYKR, the protein stability index is 2.71. DPNKMAFGCEECGKKGNTMLGYKR: the protein stability index was found to be 2.17. The result for DPNKMAFGCEECGKKRNTMLGYKR reads 3.4; that for DPNKMAFGCEECGKKWNTMLGYKR, 2.72; that for DPNKMAFGCEECGKKQNTMLGYKR, 2.44.

(Values after the supplement of paper PMC10567573.)
